# Laboratory results taken from publication doi:10.1101/2020.04.11.036434.
# Molecular target: PTEN (WT), recombinant insect-cell purified (UniProt P60484)
# Assay: SPR
row,fold decrease in affinity against P-Rex2 (WT) [fold],Substance
1,4,P-Rex2 (674-683) P-Rex1 sequence-swap mutant
2,7,P-Rex2 (904-912) P-Rex1 sequence-swap mutant
3,6,P-Rex2 (922-931) P-Rex1 sequence-swap mutant
